Test results as given in patent US20190263889A1.
“And” between values parts separate entries of the source, which are not always exact repeats. Identical values can stand only once.

Legend:
[1] = target: CTLA-4Fc mutant protein M9 (human (murine residues substituted)); test: ELISA; binder 1000 ng/ml on coated target
[2] = target: CTLA-4Fc mutant protein M6 (human (murine residues substituted)); test: ELISA; binder 1000 ng/ml on coated target
[3] = target: mouse CTLA-4-Fc (mouse) (UniProt P09793); test: ELISA; binder 1000 ng/ml on coated target
[4] = target: CTLA-4Fc mutant protein M4 (human (murine residues substituted)); test: ELISA; binder 1000 ng/ml on coated target
[5] = target: CTLA-4Fc mutant protein M2 (human (murine residues substituted)); test: ELISA; binder 1000 ng/ml on coated target
[6] = target: CTLA-4Fc mutant protein M1 (human (murine residues substituted)); test: ELISA; binder 1000 ng/ml on coated target
[7] = target: CTLA-4Fc mutant protein M7 (human (murine residues substituted)); test: ELISA; binder 1000 ng/ml on coated target
[8] = target: human IgG1-Fc control (human) [IgG part: P01857]; test: ELISA; binder 1000 ng/ml on coated target
[9] = target: CTLA-4Fc mutant protein M8 (human (murine residues substituted)); test: ELISA; binder 1000 ng/ml on coated target
[10] = target: human CTLA-4 (form in the blocking assay not stated) (human) (UniProt P16410); test: blocking of B7-CTLA-4 interaction; format not stated, no data shown
[11] = target: CTLA-4Fc mutant protein M9 (human (murine residues substituted)); test: ELISA; binder 1 ug/ml on coated target
[12] = target: CTLA-4Fc mutant protein M10 (human (murine residues substituted)); test: ELISA; binder 1 ug/ml on coated target
[13] = target: CTLA-4Fc mutant protein M3 (human (murine residues substituted)); test: ELISA; binder 1 ug/ml on coated target
[14] = target: CTLA-4Fc mutant protein M11 (human (murine residues substituted)); test: ELISA; binder 1 ug/ml on coated target
[15] = target: CTLA-4Fc mutant protein M6 (human (murine residues substituted)); test: ELISA; binder 1 ug/ml on coated target
[16] = target: CTLA-4Fc mutant protein M5 (human (murine residues substituted)); test: ELISA; binder 1 ug/ml on coated target
[17] = target: CTLA-4Fc mutant protein M4 (human (murine residues substituted)); test: ELISA; binder 1 ug/ml on coated target
[18] = target: CTLA-4Fc mutant protein M2 (human (murine residues substituted)); test: ELISA; binder 1 ug/ml on coated target
[19] = target: CTLA-4Fc mutant protein M1 (human (murine residues substituted)); test: ELISA; binder 1 ug/ml on coated target
[20] = target: CTLA-4Fc mutant protein M7 (human (murine residues substituted)); test: ELISA; binder 1 ug/ml on coated target
[21] = target: CTLA-4Fc mutant protein M8 (human (murine residues substituted)); test: ELISA; binder 1 ug/ml on coated target
[22] = target: wild type human CTLA-4Fc fusion protein (abatacept) (human); test: ELISA; binder 1 ug/ml on coated target
[23] = target: CTLA-4Fc mutant protein M9 (human (murine residues substituted)); test: ELISA; binder 10 ng/ml on coated target
[24] = target: CTLA-4Fc mutant protein M10 (human (murine residues substituted)); test: ELISA; binder 10 ng/ml on coated target
[25] = target: CTLA-4Fc mutant protein M3 (human (murine residues substituted)); test: ELISA; binder 10 ng/ml on coated target
[26] = target: CTLA-4Fc mutant protein M11 (human (murine residues substituted)); test: ELISA; binder 10 ng/ml on coated target
[27] = target: CTLA-4Fc mutant protein M6 (human (murine residues substituted)); test: ELISA; binder 10 ng/ml on coated target
[28] = target: mouse CTLA-4-Fc (mouse) (UniProt P09793); test: ELISA; binder 10 ng/ml on coated target
[29] = target: CTLA-4Fc mutant protein M5 (human (murine residues substituted)); test: ELISA; binder 10 ng/ml on coated target
[30] = target: CTLA-4Fc mutant protein M4 (human (murine residues substituted)); test: ELISA; binder 10 ng/ml on coated target
[31] = target: CTLA-4Fc mutant protein M2 (human (murine residues substituted)); test: ELISA; binder 10 ng/ml on coated target
[32] = target: CTLA-4Fc mutant protein M1 (human (murine residues substituted)); test: ELISA; binder 10 ng/ml on coated target
[33] = target: CTLA-4Fc mutant protein M7 (human (murine residues substituted)); test: ELISA; binder 10 ng/ml on coated target
[34] = target: human IgG1-Fc control (human) [IgG part: P01857]; test: ELISA; binder 10 ng/ml on coated target
[35] = target: CTLA-4Fc mutant protein M8 (human (murine residues substituted)); test: ELISA; binder 10 ng/ml on coated target
[36] = target: wild type human CTLA-4Fc fusion protein (abatacept) (human); test: ELISA; binder 10 ng/ml on coated target
[37] = target: CTLA-4Fc mutant protein M11 (human (murine residues substituted)); test: ELISA, target coated 1 ug/mL, biotinylated binder
[38] = target: CTLA-4Fc mutant protein M11 (human (murine residues substituted)); test: ELISA; binder 0 (blank) on coated target
[39] = target: CTLA-4Fc mutant protein M6 (human (murine residues substituted)); test: ELISA; binder 0 (blank) on coated target
[40] = target: CTLA-4Fc mutant protein M4 (human (murine residues substituted)); test: ELISA; binder 0 (blank) on coated target
[41] = target: CTLA-4Fc mutant protein M1 (human (murine residues substituted)); test: ELISA; binder 0 (blank) on coated target
[42] = target: CTLA-4Fc mutant protein M8 (human (murine residues substituted)); test: ELISA; binder 0 (blank) on coated target
[43] = target: wild type human CTLA-4Fc fusion protein (abatacept) (human); test: ELISA; binder 0 (blank) on coated target

Chain of mouse CTLA-4-Fc (mouse) (P09793 36-161 limits assumed): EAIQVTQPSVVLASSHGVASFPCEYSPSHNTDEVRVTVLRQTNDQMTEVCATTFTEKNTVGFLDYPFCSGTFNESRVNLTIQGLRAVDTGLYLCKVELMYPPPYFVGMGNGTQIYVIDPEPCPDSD
Chain of CTLA-4Fc mutant protein M9 (human (murine residues substituted)) (chain, as listed by the source mutant): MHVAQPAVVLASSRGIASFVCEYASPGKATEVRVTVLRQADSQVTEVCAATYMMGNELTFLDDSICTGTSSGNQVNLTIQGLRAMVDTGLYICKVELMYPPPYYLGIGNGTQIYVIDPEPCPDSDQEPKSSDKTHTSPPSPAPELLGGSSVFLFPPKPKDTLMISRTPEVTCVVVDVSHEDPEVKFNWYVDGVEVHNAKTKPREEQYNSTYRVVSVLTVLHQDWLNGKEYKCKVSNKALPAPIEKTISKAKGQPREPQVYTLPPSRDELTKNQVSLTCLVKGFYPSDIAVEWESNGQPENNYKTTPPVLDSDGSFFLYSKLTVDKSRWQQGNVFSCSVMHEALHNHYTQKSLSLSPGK
Chain of CTLA-4Fc mutant protein M5 (human (murine residues substituted)) (chain, as listed by the source mutant): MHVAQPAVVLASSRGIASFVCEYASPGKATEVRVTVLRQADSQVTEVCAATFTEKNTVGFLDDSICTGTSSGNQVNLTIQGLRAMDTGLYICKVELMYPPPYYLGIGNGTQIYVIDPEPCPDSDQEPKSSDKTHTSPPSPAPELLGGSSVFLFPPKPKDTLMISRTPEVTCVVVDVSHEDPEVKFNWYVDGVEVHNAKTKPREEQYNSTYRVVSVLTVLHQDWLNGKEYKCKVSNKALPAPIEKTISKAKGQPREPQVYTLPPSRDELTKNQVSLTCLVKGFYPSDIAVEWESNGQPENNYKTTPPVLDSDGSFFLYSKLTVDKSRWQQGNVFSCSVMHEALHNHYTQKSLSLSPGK
Chain of CTLA-4Fc mutant protein M2 (human (murine residues substituted)) (chain, as listed by the source mutant): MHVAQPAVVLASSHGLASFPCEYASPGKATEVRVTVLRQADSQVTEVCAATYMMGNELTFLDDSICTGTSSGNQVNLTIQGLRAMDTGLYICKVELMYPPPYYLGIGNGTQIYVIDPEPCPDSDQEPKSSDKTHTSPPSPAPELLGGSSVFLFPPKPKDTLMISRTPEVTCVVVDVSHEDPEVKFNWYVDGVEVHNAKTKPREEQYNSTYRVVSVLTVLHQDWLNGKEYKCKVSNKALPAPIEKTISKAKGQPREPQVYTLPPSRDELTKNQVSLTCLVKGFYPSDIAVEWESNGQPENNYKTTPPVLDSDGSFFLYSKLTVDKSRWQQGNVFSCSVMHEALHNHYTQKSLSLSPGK
Chain of CTLA-4Fc mutant protein M4 (human (murine residues substituted)) (chain, as listed by the source mutant): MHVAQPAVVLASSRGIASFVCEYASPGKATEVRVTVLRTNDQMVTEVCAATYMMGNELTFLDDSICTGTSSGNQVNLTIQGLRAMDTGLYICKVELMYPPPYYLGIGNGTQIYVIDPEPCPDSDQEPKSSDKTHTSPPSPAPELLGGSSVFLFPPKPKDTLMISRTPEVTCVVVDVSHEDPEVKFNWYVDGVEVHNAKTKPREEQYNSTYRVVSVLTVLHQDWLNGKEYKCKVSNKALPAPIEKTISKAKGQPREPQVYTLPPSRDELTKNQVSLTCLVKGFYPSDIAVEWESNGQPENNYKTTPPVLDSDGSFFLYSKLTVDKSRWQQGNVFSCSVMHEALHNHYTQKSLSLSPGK
Chain of CTLA-4Fc mutant protein M1 (human (murine residues substituted)) (chain, as listed by the source mutant): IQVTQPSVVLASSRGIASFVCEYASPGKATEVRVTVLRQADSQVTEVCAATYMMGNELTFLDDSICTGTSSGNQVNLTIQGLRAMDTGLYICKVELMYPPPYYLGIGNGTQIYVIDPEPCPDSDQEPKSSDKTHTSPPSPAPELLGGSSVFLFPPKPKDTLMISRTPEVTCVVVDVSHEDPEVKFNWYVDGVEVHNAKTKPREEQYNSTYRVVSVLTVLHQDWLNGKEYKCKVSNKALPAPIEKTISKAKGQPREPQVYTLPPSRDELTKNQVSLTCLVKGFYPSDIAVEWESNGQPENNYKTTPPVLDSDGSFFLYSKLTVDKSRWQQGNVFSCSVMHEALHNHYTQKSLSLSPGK
Chain of CTLA-4Fc mutant protein M3 (human (murine residues substituted)) (chain, as listed by the source mutant): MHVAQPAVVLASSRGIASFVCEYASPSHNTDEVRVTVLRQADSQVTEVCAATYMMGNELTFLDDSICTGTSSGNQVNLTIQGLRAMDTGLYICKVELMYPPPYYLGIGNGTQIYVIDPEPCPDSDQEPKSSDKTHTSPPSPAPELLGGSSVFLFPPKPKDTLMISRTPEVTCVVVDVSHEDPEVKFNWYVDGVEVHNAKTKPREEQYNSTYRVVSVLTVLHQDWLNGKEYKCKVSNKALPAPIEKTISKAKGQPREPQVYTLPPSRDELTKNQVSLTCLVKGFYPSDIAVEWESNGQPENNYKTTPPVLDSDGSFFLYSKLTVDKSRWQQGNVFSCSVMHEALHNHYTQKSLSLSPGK
Chain of CTLA-4Fc mutant protein M8 (human (murine residues substituted)) (chain, as listed by the source mutant): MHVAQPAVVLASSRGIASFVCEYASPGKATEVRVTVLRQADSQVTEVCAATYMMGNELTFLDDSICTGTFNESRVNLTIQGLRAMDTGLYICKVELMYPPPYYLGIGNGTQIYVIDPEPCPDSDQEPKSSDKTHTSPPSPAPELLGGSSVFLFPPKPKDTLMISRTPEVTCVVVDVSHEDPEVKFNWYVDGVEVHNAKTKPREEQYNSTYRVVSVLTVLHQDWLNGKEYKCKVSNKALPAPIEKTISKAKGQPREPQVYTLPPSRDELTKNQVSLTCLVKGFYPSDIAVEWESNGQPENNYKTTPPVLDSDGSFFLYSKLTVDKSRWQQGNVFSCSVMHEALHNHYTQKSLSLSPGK
Chain of CTLA-4Fc mutant protein M10 (human (murine residues substituted)) (chain, as listed by the source mutant): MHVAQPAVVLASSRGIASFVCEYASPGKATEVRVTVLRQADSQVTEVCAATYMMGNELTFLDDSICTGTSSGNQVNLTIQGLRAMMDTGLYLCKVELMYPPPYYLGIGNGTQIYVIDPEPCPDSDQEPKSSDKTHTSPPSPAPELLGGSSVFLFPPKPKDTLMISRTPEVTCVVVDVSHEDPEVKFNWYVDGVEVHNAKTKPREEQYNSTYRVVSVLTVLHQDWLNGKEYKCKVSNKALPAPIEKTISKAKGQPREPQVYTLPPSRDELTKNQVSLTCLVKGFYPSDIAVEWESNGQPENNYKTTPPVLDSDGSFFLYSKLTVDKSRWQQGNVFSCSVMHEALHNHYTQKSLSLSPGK
Chain of wild type human CTLA-4Fc fusion protein (abatacept) (human) (chain, as listed by the source limits assumed): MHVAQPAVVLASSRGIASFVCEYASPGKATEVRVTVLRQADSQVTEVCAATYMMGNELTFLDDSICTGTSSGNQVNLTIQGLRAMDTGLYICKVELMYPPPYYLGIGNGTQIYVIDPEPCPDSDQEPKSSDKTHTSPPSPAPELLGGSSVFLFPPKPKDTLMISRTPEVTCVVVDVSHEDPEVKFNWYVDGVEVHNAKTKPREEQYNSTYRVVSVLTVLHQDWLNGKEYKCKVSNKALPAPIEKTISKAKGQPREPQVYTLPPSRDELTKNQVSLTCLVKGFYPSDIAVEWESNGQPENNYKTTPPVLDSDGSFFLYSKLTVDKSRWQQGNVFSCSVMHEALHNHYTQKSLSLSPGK
Chain of CTLA-4Fc mutant protein M6 (human (murine residues substituted)) (chain, as listed by the source mutant): as the sequence (chain, as listed by the source limits assumed) above, with A50T counted along it
Chain of CTLA-4Fc mutant protein M11 (human (murine residues substituted)) (chain, as listed by the source mutant): as the sequence (chain, as listed by the source limits assumed) above, with Y103F, L104V, I106M counted along it
Chain of CTLA-4Fc mutant protein M7 (human (murine residues substituted)) (chain, as listed by the source mutant): as the sequence (chain, as listed by the source limits assumed) above, with D63Y, S64P, I65F, T67S counted along it
Chain of human CTLA-4 (form in the blocking assay not stated) (human) (P16410 36-223 limits assumed): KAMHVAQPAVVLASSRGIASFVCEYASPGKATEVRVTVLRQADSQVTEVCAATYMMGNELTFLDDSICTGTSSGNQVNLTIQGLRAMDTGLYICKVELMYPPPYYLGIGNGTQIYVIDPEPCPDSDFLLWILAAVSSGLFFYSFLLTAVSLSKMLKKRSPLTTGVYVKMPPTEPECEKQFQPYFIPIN

OD450 [1]: 1.12 OD450 and 1.18 OD450
OD450 [2]: 3.28 OD450 and 3.32 OD450
OD450 [3]: 0.942 OD450 and 0.94 OD450
OD450 [4]: 3.08 OD450 and 3.15 OD450
OD450 [5]: 2.83 OD450 and 2.75 OD450
OD450 [6]: 3.51 OD450
OD450 [7]: 3.3 OD450 and 3.35 OD450
OD450 [8]: 1.39 OD450 and 1.47 OD450
OD450 [9]: 3.35 OD450 and 3.44 OD450
fold higher B7 blocking activity than 10D1 [10]: 1000 fold
OD450 [11]: 0.916 OD450
OD450 [12]: 0.804 OD450 and 0.868 OD450
OD450 [13]: 3.18 OD450 and 3.12 OD450
OD450 [14]: 2.84 OD450 and 2.98 OD450
OD450 [15]: 3.09 OD450 and 3.07 OD450
OD450 [16]: 3.02 OD450 and 3.03 OD450
OD450 [17]: 2.65 OD450 and 2.66 OD450
OD450 [18]: 2.39 OD450 and 2.62 OD450
OD450 [19]: 3.27 OD450 and 2.97 OD450
OD450 [20]: 3.15 OD450 and 2.99 OD450
OD450 [21]: 3.14 OD450 and 3.03 OD450
OD450 [22]: 3.37 OD450 and 3.11 OD450
OD450 [23]: 0.158 OD450 and 0.213 OD450
OD450 [24]: 0.157 OD450
OD450 [25]: 0.623 OD450 and 0.593 OD450
OD450 [26]: 0.19 OD450 and 0.194 OD450
OD450 [27]: 1.24 OD450 and 1.88 OD450
OD450 [28]: 0.201 OD450 and 0.18 OD450
OD450 [29]: 1.85 OD450 and 1.8 OD450
OD450 [30]: 0.817 OD450 and 0.563 OD450
OD450 [31]: 0.469 OD450 and 0.333 OD450
OD450 [32]: 2.69 OD450 and 2.78 OD450
OD450 [33]: 0.837 OD450 and 0.884 OD450
OD450 [34]: 0.201 OD450 and 0.182 OD450
OD450 [35]: 1.27 OD450 and 1.45 OD450
OD450 [36]: 1.71 OD450 and 1.8 OD450
fold reduction of binding against WT CTLA-4Fc [37]: 100 fold
OD450 [38]: 0.183 OD450 and 0.167 OD450
OD450 [39]: 0.192 OD450 and 0.176 OD450
OD450 [40]: 0.184 OD450 and 0.176 OD450
OD450 [41]: 0.196 OD450 and 0.187 OD450
OD450 [42]: 0.187 OD450 and 0.17 OD450
OD450 [43]: 0.202 OD450 and 0.195 OD450
Substance: chimeric L3D10 anti-human CTLA-4 antibody
